Test results: article PMC9475539 (The EMBO Journal, 2022)
Where a chain is given by its changes, count along the chain named. Numbers in names are those of the source.

B1: YdiK from Escherichia coli (natural protein, E. coli K-12, UniProt P0AFS7 1-370, looked up)
chain: MVNVRQPRDVAQILLSVLFLAIMIVACLWIVQPFILGFAWAGTVVIATWPVLLRLQKIMFGRRSLAVLVMTLLLVMVFIIPIALLVNSIVDGSGPLIKAISSGDMTLPDLAWLNTIPVIGAKLYAGWHNLLDMGGTAIMAKVRPYIGTTTTWFVGQAAHIGRFMVHCALMLLFSALLYWRGEQVAQGIRHFATRLAGVRGDAAVLLAAQAIRAVALGVVVTALVQAVLGGIGLAVSGVPYATLLTVLMILSCLVQLGPLPVLIPAIIWLYWTGDTTWGTVLLVWSGVVGTLDNVIRPMLIRMGADLPLILILSGVIGGLIAFGMIGLFIGPVLLAVSWRLFAAWVEEVPPPTDQPEEILEELGEIEKPNK
B2: PerM from Escherichia coli (natural protein, E. coli K-12, UniProt P0AFI9 1-353, looked up)
chain: MLEMLMQWYRRRFSDPEAIALLVILVAGFGIIFFFSGLLAPLLVAIVLAYLLEWPTVRLQSIGCSRRWATSIVLVVFVGILLLMAFVVLPIAWQQGIYLIRDMPGMLNKLSDFAATLPRRYPALMDAGIIDAMAENMRSRMLTMGDSVVKISLASLVGLLTIAVYLVLVPLMVFFLLKDKEQMLNAVRRVLPRNRGLAGQVWKEMNQQITNYIRGKVLEMIVVGIATWLGFLLFGLNYSLLLAVLVGFSVLIPYIGAFVVTIPVVGVALFQFGAGTEFWSCFAVYLIIQALDGNLLVPVLFSEAVNLHPLVIILSVVIFGGLWGFWGVFFAIPLATLIKAVIHAWPDGQIAQE
B3: YhhT from Escherichia coli (natural protein, E. coli K-12, UniProt P0AGM0 1-349, looked up)
chain: METPQPDKTGMHILLKLASLVVILAGIHAAADIIVQLLLALFFAIVLNPLVTWFIRRGVQRPVAITIVVVVMLIALTALVGVLAASFNEFISMLPKFNKELTRKLFKLQEMLPFLNLHMSPERMLQRMDSEKVVTFTTALMTGLSGAMASVLLLVMTVVFMLFEVRHVPYKMRFALNNPQIHIAGLHRALKGVSHYLALKTLLSLWTGVIVWLGLELMGVQFALMWAVLAFLLNYVPNIGAVISAVPPMIQVLLFNGVYECILVGALFLVVHMVIGNILEPRMMGHRLGMSTMVVFLSLLIWGWLLGPVGMLLSVPLTSVCKIWMETTKGGSKLAILLGPGRPKSRLPG
B4: TqsA (transporter of quorum-sensing signal AI-2) from Escherichia coli (natural protein, E. coli K-12, UniProt P0AFS5 1-344, looked up)
chain: MAKPIITLNGLKIVIMLGMLVIILCGIRFAAEIIVPFILALFIAVILNPLVQHMVRWRVPRVLAVSILMTIIVMAMVLLLAYLGSALNELTRTLPQYRNSIMTPLQALEPLLQRVGIDVSVDQLAHYIDPNAAMTLLTNLLTQLSNAMSSIFLLLLTVLFMLLEVPQLPGKFQQMMARPVEGMAAIQRAIDSVSHYLVLKTAISIITGLVAWAMLAALDVRFAFVWGLLAFALNYIPNIGSVLAAIPPIAQVLVFNGFYEALLVLAGYLLINLVFGNILEPRIMGRGLGLSTLVVFLSLIFWGWLLGPVGMLLSVPLTIIVKIALEQTAGGQSIAVLLSDLNKE
B5: TqsA E164Q (natural protein, E. coli K-12, UniProt P0AFS5 1-344, looked up)
chain: B4 chain with E164Q
B6: TqsA K200L (natural protein, E. coli K-12, UniProt P0AFS5 1-344, looked up)
chain: B4 chain with K200L
B7: TqsA R61L (natural protein, E. coli K-12, UniProt P0AFS5 1-344, looked up)
chain: B4 chain with R61L
B8: TqsA E280Q (natural protein, E. coli K-12, UniProt P0AFS5 1-344, looked up)
chain: B4 chain with E280Q
B9: TqsA N238L (natural protein, E. coli K-12, UniProt P0AFS5 1-344, looked up)
chain: B4 chain with N238L
B10: TqsA P237A (natural protein, E. coli K-12, UniProt P0AFS5 1-344, looked up)
chain: B4 chain with P237A
B11: TqsA N234L (natural protein, E. coli K-12, UniProt P0AFS5 1-344, looked up)
chain: B4 chain with N234L

How the values were obtained:
cryo-EM structure = biological target: the molecule itself; assay: cryo-EM structure
native gel or EMSA = biological target: the molecule itself; assay: native gel or EMSA
[1] = biological target: the molecule itself; assay: cryo-EM 2D class averages
SEC + native gel or EMSA = biological target: the molecule itself; assay: SEC + native gel or EMSA

Protein | stoichiometry N (SEC + native gel or EMSA) | further results
B1 | – | stoichiometry N (cryo-EM structure): 5
B2 | – | stoichiometry N (native gel or EMSA): 2
B3 | – | stoichiometry N [1]: 5
B4 | – | stoichiometry N (cryo-EM structure): 5
B5 | 5 | –
B6 | 5 | –
B7 | 5 | –
B8 | 5 | –
B9 | 5 | –
B10 | 5 | –
B11 | 5 | –
